From publication PMC8602292, “Acyl carrier protein promotes MukBEF action in Escherichia coli chromosome organization-segregation” (Nature Communications, 2021)
Residue numbers refer to the chain shown, from its start. Names and notes keep the numbering of the source.

T1: MukB^KRK (K1114E, R1122E and K1125E) (Escherichia coli, UniProt P22523 1-1486, K1114E | R1122E | K1125E)
T1 construct: E. coli MukB, triple charge-reversed mutant; source: E. coli FL01 (mukB 3xFLAG C3013I), purified (TALON, HiTrap Heparin, Superdex 200); not shown: His tag, C-terminal, kept
T1 sequence (looked up): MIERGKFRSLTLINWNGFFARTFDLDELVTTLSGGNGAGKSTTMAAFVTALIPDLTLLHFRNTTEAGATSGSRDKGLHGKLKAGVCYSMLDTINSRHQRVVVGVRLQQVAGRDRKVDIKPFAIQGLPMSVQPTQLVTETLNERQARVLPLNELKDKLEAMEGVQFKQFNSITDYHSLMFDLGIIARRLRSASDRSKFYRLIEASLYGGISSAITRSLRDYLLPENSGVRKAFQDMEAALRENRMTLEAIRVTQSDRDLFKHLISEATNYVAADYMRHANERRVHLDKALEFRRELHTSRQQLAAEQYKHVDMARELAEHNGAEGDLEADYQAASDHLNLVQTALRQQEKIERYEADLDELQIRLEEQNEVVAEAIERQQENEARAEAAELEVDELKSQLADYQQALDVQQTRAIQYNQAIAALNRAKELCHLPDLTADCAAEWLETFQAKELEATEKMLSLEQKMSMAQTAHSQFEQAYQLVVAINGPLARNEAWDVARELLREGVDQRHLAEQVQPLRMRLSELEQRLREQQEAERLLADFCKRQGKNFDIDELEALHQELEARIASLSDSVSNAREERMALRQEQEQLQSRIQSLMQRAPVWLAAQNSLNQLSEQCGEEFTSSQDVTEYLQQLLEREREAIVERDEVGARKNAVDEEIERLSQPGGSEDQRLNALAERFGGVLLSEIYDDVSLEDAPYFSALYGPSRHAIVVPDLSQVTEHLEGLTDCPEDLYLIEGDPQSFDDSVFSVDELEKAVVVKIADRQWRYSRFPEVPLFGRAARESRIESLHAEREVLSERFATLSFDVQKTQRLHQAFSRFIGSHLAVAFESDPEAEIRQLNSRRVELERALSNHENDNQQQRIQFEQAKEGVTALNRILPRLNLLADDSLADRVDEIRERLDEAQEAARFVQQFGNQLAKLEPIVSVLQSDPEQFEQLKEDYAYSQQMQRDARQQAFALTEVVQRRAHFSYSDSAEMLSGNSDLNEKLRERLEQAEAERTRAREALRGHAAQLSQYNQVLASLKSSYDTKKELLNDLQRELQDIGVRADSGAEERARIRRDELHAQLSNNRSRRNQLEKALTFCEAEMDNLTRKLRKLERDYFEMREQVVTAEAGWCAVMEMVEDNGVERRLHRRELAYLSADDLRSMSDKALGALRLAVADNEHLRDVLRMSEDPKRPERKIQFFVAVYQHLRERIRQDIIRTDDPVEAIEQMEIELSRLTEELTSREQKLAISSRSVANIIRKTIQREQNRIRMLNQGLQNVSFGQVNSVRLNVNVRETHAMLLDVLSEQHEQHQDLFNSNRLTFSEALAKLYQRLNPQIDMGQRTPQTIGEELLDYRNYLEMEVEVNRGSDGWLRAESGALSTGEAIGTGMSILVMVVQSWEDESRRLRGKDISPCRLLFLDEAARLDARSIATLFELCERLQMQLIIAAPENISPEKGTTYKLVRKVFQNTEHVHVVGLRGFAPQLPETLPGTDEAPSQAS

B1: MukB (wild type, MukB-His) (natural protein, Escherichia coli, UniProt P22523 1-1486, looked up)
chain: T1 sequence (looked up) with E1114K, E1122R, E1125K
notes: MukB, the SMC protein of Escherichia coli MukBEF; wild type; The end of the tag is read from the printed name 'MukB-His'; The same construct was used with co-purified AcpP or depleted of AcpP by an extended salt gradient on heparin; also called WT MukB; AcpP-depleted MukB; source: E. coli C3013I (NEB), pET vector, purified (TALON, HiTrap Heparin, Superdex 200); not shown: His tag, C-terminal, kept

Assays:
[1] = molecular target: MukB^N (MukB Neck) (Escherichia coli); assay: native MS; MukB^N or MukB^HN with co-purified AcpP; 200 mM ammonium acetate pH 8.0
[2] = molecular target: B1
[3] = molecular target: MukB^KK (K1114E and K1125E) (Escherichia coli) (UniProt P22523)
[4] = molecular target: T1, MukB^KRK (K1114E, R1122E and K1125E)
[5] = molecular target: MukB (wild type, MukB-His) (Escherichia coli) (UniProt P22523)
[6] = molecular target: MukB^HN (MukB Head-Neck) (Escherichia coli); assay: native MS; MukB^N or MukB^HN with co-purified AcpP; 200 mM ammonium acetate pH 8.0
[7] = molecular target: the molecule itself; assay: native MS; mixtures of MukB, MukE, MukF and AcpP at various concentrations of MukB; 200 mM ammonium acetate pH 8.0

With MukB^N (MukB Neck) (domain or fragment) the stoichiometry N [1] was 2.

“Acyl Carrier Protein (AcpP), recombinant (from UniProt P0A6A8 1-78) (natural protein)” was tested, and the ATPase activity of AcpP-depleted MukB with MukF, without and with added recombinant AcpP (ATP molecules/MukB2/min) [2] was 29, the ATPase activity with MukEF against increasing AcpP (up to 50 μM) (% of WT ATPase activity) [3] was 60 and the ATPase activity with MukEF against increasing AcpP (up to 100 times excess, 50 μM) (ATP molecules/MukB2/min) [4] was 7.6.

With “Acyl Carrier Protein (AcpP), native, co-purified from the E. coli host (from UniProt P0A6A8 1-78) (natural protein)” the ATPase activity of MukBF co-purified with AcpP (ATP molecules/MukB2/min) [5] was 27.2, the stoichiometry N [1] was 1 and the stoichiometry N [6] was 1.

B1: binds [7].
